From patent publication US20220332804A1 (CSL INNOVATION, published 2022)

Experiments:
Test in all cases: SPR, KD relative to WT C2;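 also: biacore SPR at 37 °C, anti-C2 mAbs captured on anti-human IgG chips with alanine or serine point mutants of C2 as analyte, KD from 1:1 fit compared with wild-type C2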
[1] = biological target: T1, human C2 D282A (human, UniProt P06681 21-752)
T1 sequence: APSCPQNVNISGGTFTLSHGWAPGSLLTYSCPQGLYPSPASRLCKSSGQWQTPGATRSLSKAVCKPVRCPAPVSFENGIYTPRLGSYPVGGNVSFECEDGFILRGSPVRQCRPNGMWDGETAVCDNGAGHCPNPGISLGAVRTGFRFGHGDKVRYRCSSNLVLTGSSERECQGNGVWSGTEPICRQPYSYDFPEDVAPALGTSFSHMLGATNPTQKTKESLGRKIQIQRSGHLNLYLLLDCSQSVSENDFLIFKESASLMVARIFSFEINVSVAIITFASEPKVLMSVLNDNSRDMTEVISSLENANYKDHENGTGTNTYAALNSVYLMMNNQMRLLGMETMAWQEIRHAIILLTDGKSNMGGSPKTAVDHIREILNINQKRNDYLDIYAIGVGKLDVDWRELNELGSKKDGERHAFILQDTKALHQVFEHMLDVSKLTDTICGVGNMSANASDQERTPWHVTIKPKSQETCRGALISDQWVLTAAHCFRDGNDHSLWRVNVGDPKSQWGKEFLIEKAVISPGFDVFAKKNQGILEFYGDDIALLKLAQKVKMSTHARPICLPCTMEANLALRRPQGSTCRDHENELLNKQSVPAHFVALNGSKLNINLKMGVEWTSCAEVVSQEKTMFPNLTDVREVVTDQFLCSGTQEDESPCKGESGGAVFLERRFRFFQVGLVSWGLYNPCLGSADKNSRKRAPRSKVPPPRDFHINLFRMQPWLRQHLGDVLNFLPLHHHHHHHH

[2] = biological target: T2, human C2 F689A (human, UniProt P06681 21-752)
T2 sequence: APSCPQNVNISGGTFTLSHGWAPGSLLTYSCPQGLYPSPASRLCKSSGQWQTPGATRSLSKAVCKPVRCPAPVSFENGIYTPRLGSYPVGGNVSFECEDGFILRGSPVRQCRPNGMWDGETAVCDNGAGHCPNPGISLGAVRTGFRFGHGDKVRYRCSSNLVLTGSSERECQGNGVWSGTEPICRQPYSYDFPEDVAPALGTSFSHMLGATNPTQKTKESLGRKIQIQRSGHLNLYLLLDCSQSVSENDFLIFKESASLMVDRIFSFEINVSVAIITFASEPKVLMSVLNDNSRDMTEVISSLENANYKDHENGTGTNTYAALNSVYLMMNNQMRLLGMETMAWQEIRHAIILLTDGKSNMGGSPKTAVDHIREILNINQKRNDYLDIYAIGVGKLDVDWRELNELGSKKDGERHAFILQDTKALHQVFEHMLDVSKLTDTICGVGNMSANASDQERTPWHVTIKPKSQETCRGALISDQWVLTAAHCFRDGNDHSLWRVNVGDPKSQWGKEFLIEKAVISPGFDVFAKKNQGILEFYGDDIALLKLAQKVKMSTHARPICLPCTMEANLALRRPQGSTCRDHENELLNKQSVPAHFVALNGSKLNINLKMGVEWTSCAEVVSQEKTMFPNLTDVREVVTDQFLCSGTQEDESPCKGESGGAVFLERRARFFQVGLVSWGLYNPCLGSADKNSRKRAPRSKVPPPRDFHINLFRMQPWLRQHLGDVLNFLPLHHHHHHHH

[3] = biological target: T3, human C2 M316A (human, UniProt P06681 21-752)
T3 sequence: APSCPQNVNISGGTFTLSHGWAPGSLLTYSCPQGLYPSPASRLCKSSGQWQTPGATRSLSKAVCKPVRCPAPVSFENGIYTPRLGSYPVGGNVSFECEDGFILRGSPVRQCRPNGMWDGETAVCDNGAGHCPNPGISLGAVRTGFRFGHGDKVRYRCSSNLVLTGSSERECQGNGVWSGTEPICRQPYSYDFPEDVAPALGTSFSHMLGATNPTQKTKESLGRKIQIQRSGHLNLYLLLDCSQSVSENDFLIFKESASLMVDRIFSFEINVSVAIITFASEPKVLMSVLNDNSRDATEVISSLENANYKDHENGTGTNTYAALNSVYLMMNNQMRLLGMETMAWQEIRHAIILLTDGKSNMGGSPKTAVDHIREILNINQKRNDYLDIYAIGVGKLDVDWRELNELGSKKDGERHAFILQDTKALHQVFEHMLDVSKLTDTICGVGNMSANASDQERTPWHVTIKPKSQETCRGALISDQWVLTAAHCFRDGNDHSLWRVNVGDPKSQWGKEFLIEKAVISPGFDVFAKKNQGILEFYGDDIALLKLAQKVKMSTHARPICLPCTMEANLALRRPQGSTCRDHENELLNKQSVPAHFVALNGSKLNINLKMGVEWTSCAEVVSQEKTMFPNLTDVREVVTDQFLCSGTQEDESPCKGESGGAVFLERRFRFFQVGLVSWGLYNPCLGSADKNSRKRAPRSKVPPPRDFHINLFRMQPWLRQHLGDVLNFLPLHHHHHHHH

[4] = biological target: T4, human C2 D269A (human, UniProt P06681 21-752)
T4 sequence: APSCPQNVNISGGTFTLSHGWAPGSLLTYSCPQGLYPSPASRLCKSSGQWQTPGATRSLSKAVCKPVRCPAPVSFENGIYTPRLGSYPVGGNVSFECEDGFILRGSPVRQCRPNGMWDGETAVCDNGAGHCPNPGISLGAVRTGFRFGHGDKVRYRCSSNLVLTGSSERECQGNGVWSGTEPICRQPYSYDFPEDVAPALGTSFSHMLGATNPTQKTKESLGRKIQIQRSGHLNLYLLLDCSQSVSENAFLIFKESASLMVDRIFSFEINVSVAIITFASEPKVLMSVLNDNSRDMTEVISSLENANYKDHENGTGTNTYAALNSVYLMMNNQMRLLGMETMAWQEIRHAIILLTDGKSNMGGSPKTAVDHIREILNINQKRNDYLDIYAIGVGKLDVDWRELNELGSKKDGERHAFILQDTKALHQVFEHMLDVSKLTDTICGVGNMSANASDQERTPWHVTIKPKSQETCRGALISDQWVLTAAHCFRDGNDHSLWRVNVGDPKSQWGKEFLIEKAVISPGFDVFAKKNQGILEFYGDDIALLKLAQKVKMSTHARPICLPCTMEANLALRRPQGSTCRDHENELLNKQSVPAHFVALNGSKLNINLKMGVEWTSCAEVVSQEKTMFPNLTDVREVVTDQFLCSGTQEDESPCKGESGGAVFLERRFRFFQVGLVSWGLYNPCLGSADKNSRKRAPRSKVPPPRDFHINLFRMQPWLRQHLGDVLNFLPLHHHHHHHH

B1: RF16-242 (antibody, human IgG4 S228P, lambda, V domains shown)
VH: EVQLLQSGAEVKKPGESLKISCKGSGYSFTSYWIGWVRQMPGKGLEWMGIIYPGDSDTRYSPSFQGQVTISADKSISTAYLQWSSLKASDTAMYYCARRGHYGDYFDYWGQGTLVTVSS
VL: SYELTQPPSVSVSPGQTARITCSGDALPKKYAYWYHQKSGQAPVLVIYEDRRRPSEIPERFSGSSSGTMATLTITGAQVEDEGVYFCYSRDRAGNQRVFGGGTQLTVLG
notes: pH-dependent anti-C2 antibody from a phage display library
[1]
  Fold diff: 1 fold
[2]
  Fold diff: 1 fold
[3]
  Fold diff: 1 fold
[4]
  Fold diff: 2 fold
